Publication PMC6082628

T1: Act1 SEFIR (mouse, UniProt Q8N7N6 391-537)
T1 sequence: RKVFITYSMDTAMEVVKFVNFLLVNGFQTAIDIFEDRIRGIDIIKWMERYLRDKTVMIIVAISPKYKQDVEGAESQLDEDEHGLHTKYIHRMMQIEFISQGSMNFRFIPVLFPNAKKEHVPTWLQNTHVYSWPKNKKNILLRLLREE


Legend:
Act1 SEFIR [1] = biological target: T1, Act1 SEFIR; assay: EMSA
Act1 SEFIR [2] = biological target: T1, Act1 SEFIR; assay: competition
Act1 SEFIR [3] = biological target: T1, Act1 SEFIR; assay: competition; remark: listed apart in the source
Act1 SEFIR [4] = biological target: T1, Act1 SEFIR; assay: EMSA; remark: listed apart in the source

Binder | binding result (Act1 SEFIR [1]) | further results
CCUUGGACAUUUUGUGUCUAGUUGGUAAAACAUAAUGCCCUUUUACA (ssRNA) [SBE mutant C] | no binding | –
CCUUGGACAUUUUGUGUCUAGUUGGUAGGGCAUAAUGCCCUUUUACA (structured_RNA, 2'-O-methyl on the first three residues at 5' and 3' ends (as ordered)) [SBE WT aptamer (competitor)] | – | binding result (Act1 SEFIR [2]): binds
CCUUGGACAUUUUGUGUCUAGUUGGUAAAACAUAAUGCCCUUUUACA (ssRNA, 2'-O-methyl on the first three residues at 5' and 3' ends (as ordered)) [SBE mutant C aptamer (competitor)] | – | binding result (Act1 SEFIR [3]): no binding
Cxcl1 220-II (structured_RNA) RNA: GUUGGUAGGGCAUAAUGCCCUUUUACAUUCUUUAACCCUGUUUCUCCUGGUCUCGUCUCGCUCGGGACAGAGACGUUCAAAGGACUGUUACAAAUGAAGUAAAAAUAAAAG | binds | –
CCUUGGACAUUUUGUGUCUAGUUGGUAGGGCAUAAUGGGGUUUUACA (ssRNA) [Stem-loop C CCC to GGG] | no binding | –
CCUUGGACAUUUUGUGUCUAGUUGGUACCCCAUAAUGGGGUUUUACA (structured_RNA) [SBE stem swap] | – | binding result (Act1 SEFIR [4]): binds
